Legend:
[1] = molecular target: Mus dunni endogenous virus (MDEV) receptor on M. dunni cells (Mus dunni)
[2] = molecular target: Mus dunni endogenous virus (MDEV) receptor on M. dunni cells (Mus dunni); remark: listed apart in the source
[3] = molecular target: Mus dunni endogenous virus (MDEV) receptor on primary human dermal fibroblasts (human)
[4] = molecular target: Mus dunni endogenous virus (MDEV) receptor on M. dunni cells (Mus dunni); remark: listed apart in the source

Q: For “Balb/c 3T3 IdU-induced retrovirus (BIRV) envelope”, which LAPSN titer, BIRV pseudotype on M. dunni cells infected with MDEV (8 × 10^4 on uninfected cells) [1] is on record?
A: The LAPSN titer, BIRV pseudotype on M. dunni cells infected with MDEV (8 × 10^4 on uninfected cells) was 60000 FFU/ml.

Q: Which results are given for “Mus dunni endogenous virus (MDEV) envelope protein”?
A: log10 of the fold interference, LAPSN(MDEV) on dunni/LN cells infected with MDEV (log10 of the fold interference) [2]: 5.5; LAPSN titer, MDEV pseudotype on M. dunni cells infected with MDEV (6 × 10^5 on uninfected cells) [1]: 3 FFU/ml; inhibition of transduction, LAPSN(MDEV) on HDF cells infected with MDEV [3]: 100 fold; Fold Interference, LAPSN(PD223) titer on dunni/N2 against dunni/N2 + MDEV (fold interference) [4]: > 20000

Q: Which LAPSN titer, MDEV pseudotype on M. dunni cells infected with xenotropic virus (6 × 10^5 on uninfected cells) [1] does the source give for “envelope protein of NZB xenotropic virus” here?
A: The LAPSN titer, MDEV pseudotype on M. dunni cells infected with xenotropic virus (6 × 10^5 on uninfected cells) was 400000 FFU/ml.

Q: With “envelope protein of amphotropic MLV strain 4070A” as the substance, how does the Fold Interference, LAPSN(PA317) titer on dunni/N2 against dunni/N2 + MDEV (fold interference) [4] read?
A: The Fold Interference, LAPSN(PA317) titer on dunni/N2 against dunni/N2 + MDEV (fold interference) was 1.

Q: “envelope protein of amphotropic virus (AM-MLV)” was tested. Which LAPSN titer, MDEV pseudotype on M. dunni cells infected with amphotropic virus (6 × 10^5 on uninfected cells) [1] did it give?
A: Its LAPSN titer, MDEV pseudotype on M. dunni cells infected with amphotropic virus (6 × 10^5 on uninfected cells) is 400000 FFU/ml.

Q: With “envelope protein of polytropic (MCF) virus strain 98D” as the substance, how does the LAPSN titer, MDEV pseudotype on M. dunni cells infected with polytropic virus (6 × 10^5 on uninfected cells) [1] read?
A: The LAPSN titer, MDEV pseudotype on M. dunni cells infected with polytropic virus (6 × 10^5 on uninfected cells) was 400000 FFU/ml.
